Here are results for 22 sequences from a protein production outcome set (Wang et al. 2014).
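Further: failed if final PepcDB status was selected cloned or expressed and not failed if soluble or beyond.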

A short description of this series: label from the status in PepcDB records.
With “MTLKTFFNFTRIQTLPAALLSPIAGCLFAFWYFGSFHFWPTLLFFIGLASINLFVSAWNNLMDYQKALDPEYKKWNIIVAKSINPKLALNICLALLAIDVVVGLIVLFLTNLAILPIGGLCFLIAIFYTYGPFAFSRFPLGEILAGLCEGFFGFFLAVYINSYDKGYFFINFDRNWFMTWTWDFKILLPILLVGLMCFVQNFNIMFSDNICDLEQDIRNERYTLPYYLKIPLSLKVFTGLYLFAGLCILIAIALGILPIWSLLMSIIALKVIPNIKKFRAKQSKSETFHLQIDNLMLFNASLALTLLLGIIFK”, the protein production entry is given as “failed”. Consider “MLRQGAKHTACTGRRNDDDRTPKEQSMKIVVIGGTGLIGSNVVNRLRRDGHETVAASPGTGVNTITGEGLAQALDGAQVVVDVANSPSFEDQAVMAFFETSGRTLLAAEAAAGVTHHLALSVVGTDRLADSGYFRAKVAQEALIKASKVPYTILRATQFFEFIESIVNAGADGDTVRLSPALIQPIAADDVSAALADLAVGMPLNGTVEVAGPDRLPLDELARKFLAARGDRRQVVADVHARYFGSELDDRSLVAGDNPRVGSTRLMNWLSRSPAPQ”, for which the protein production result is on record as “failed”. “MPHAARSDAAALRAPAADDGAYGKPAIALHWIIALLIFAAFGLGLYMTDIPGFTPTKLKLYSYHKWAGITVLILAVLRVLWRLTHPAPAPVAGMPAWQQKAAEGAHIVLYLLILAVPLTGYLLSVAAGIKVVYLGLWELPMPFDKSDALKEIFQVAHEWLNWTMATIVVLHILAALKHHIVDSDGTLRRMLPFLR”: the protein production result is listed as “failed”.

Turning to “MMLLQQFKKIITVLIQVLVIMGITYLGNVIQRYMHIPIAGSIVGLLLFFLLLQFKVIPAKWVNEGSNFFLTTMVFFFVPSVVGIMDVVPMINLNFILFFSMILLGTCCVALISGFIAEKMVKNKQDGNGVN”, the protein production result is “failed”. Turning to “MDFAHLDQQLRDSVLDLKLSNEERDELRQLGSELGQDQVRYMRNRAFDLVRELALADSVNVLPALKWLEQVIKTLDANSAPVRDMASAHFSPGEDCRRKIRDLCRQARISVDICVFTISDDQLSDEIRACHQRGVAVRVISDSEKQFDVGSDIAALREAGVPVRIDDTPFHMHHKFAVFDGRTLLNGSFNWTRSATTGNEENLLVIDHPQLVASYLKEFNELWSRYAPR”, the protein production result is “failed”.

In the case of “MMGIMSDPITILDSSDSLSRLSSESVGRLVVHRKDDLDIFPVNFVLDYSAEQPRVYFRTAEGTKLFSVNLNSDVLFEVDRFDDAEGWSVVLKGNAYVVRDTEEARHADTLGLKPWLPTLKYNFVRIDVREVSGRAFVFGEEPERY”, the protein production result is “not failed”. Consider “MAAERKTKLSKNLLRMKFMQRGLDSETKKQLEEEEKKIISEEHWYLDLPELKEKESFIIEEQSFLLCEDLLYGRMSFRGFNPEVEKLMLQMNAKHKAEEVEDETVELDVSDEEMARRYETLVGTIGKKFARKRDHANYEEDENGDITPIKAKKMFLKPQD”, for which the protein production entry is “not failed”. Next, “MTLDLFAPQPKTNLLPYDGDVEDYGCFISTAEAEQYFQYFLKHLAWRHDEARLYGKHFITPRQVAWYGDDHYRYAYSGIMRDSLPWDPQLLILKQQIEQTLAERFNSCLANLYQEGTQGMAWHSDGDMSLAKQTTIASLSLGATRKFCFRHLRTKEKIEMQLQSGQLIVMRGETQQHWQHAIMKSQKVIHPRINLTFRQFLLLEHHHHHH”: “failed”. Next, “MAQEEAGRLPQVLARVGTSHGITDLACKLRFYDDWAPEYDQDVAALKYRAPRLAVDCLSQALQGPPHDALILDVACGTGLVAVELQARGFLQVQGVDGSPEMLKQARARGLYHHLSLCTLGQEPLPYPKGTFDAVIIVGALSEGQVPCSAIPELLRVTKPGGLVCLTTRTNPSNLPYKEALEAALDSLEQAGAWERLVTQPVDHWELATSEQESGLATCANDGFISGVIYLYRKQETAQGERGRLSIQPLIDH”: “failed”; “MNSCILQATVVEAPQLRYTQDNQTPVAEMVVQFPGLSSKDAPARLKVVGWGAVAQELQDRCRLNDEVVLEGRLRINSLLKPDGNREKQTELTVTRVHHLTLDSATGILAQEESEVSYGRSAAASAPVKASPVVTPTAAPDVDYDDIPF”: “failed”.

On to “MSRTNINFNNKRTELANKIWDIFIANGYENTTLAFIINKLGISKGALYHYFSSKEECADAAIENRVAFFSNEVLKESEEGLNSIERLKKILLAGIKITSVNEQVKEINSPSNKIFHQKLMVAIIKYFAPIYADIISQGNEEGVFKVKYPLETAEIILTLSHFYLDEDLFKWKKEDMSLKLTAFKETLIKILDADEDTFDFIK”, for which the protein production entry is on record as “not failed”. In the case of “MSLFRSRPNALSQRSVIASSSELASLAGRDILKRGGNIFDAALAVSAMLCVTQNNLCGLGGDLFALIRDENGQIMDLNGSGQASRAVSIDYYESMGLTKIPERGPYAAITVPGIAGSWDEIFRKFATMDIADILEPAIRTASAGFPITQNYSDSIARSAPVIGQYRGWSSIFMPNGSVPVAGEILKQPDLAESFRLMSEEGFRSFYDGSLADIIIAGLEGTGSPLSDRDLRVYRPLIGKPVFTDLDEFRIYETSPNSQGITVIEWIRGMESHGYDSRTMWEAKIEDIFETMEEAYDKRRKITDPSYMNIAQHDSANGKKDGLPKRDHNDIGDTTYFSISDSEGRSVSIIQSNYMGFGSGIVPKGTGFVLQNRGSYFTLQRDHPNALMPGKRTFHTLAACMVEKEHDLYASLGSMGGDIQPQVQMQILMEILKDNTDPQAILDKPRWTEPYTIYEAPGAVYVESEELYRNVSKQISGRKVVLRDVSQEFGTAQITTLIRGDVVVGAADPRGDGIAIPYSEGHHHHHH”, the protein production result is on record as “not failed”. Under “MDQLSEKQIWYYHIIPEYQTEKSFYACVRRSGMIKFDTFYFPHMLSARETQRSIKFGDGVWSGCLYDPDIYTDGKISIQGVGGVLFPREAEIGGCVCLCLIFLIKLGLSTKYMKSHVSFDVSCDL” stands “failed”; under “MSNSQAGPGASVRRVLAVIPARGGSKGVPAKNLAPVGGVPLVVRAVRECLAARLVTDVVVSTDDQAIAAAAREAGAEVVLRPAAIAGDTATSEAAVLHAMDAHEALHGAAVDVVLLVQCTSPFLVREDVDGVAGAVVEDGADTAVTVAPFHGFVWRDGADEPGGADGGHGVNHDKAYRPRRQDRPQDLLETGAAYAMAAPGFRKHRHRFFGRTDLVRTDPARVLEIDDPHDLARARALAPHFDTARPGALPTAADIDAVVLDFDGTQTDDRVLIDTDGREFVSVHRGDGLGIAALRRSGLTMLILSTEVNPVVAARARKLKLPVLHGIDRKDLALKQWCEEQGIAPERVLYVGNDVNDLPCFALVGWPVAVASAHDAVRGAARAVTTVPGGEGAVREIAAWLLGPSLDALGPASETTPTLTQSKLEHHHHHH”, “not failed”. Next, “METAICGRLALAPSSLFNSKSGDKHLVSKGPCVNRSILMTLSTSAALGKGGGVLDKPIIEKTTPGRESEFDLRKSKKIAPPYRVILHNDNFNKREYVVQVLMKVIPGMTVDNAVNIMQEAHINGLAVVIVCAQADAEQHCMQLRGNGLLSSVEPDGGGC”: “failed”; “MTQASRSEFRAELLSRIPRWYSPWGHLLFPAVAGLAIAAFALSRIEDLAAWQLAAVPAFLVFGNAVEWTAHRGMLHRRLRFAEVFYVRHTPQHHAVYVADDMAMRDWRELKLVLLPAYGVLAILAVTSPLTLAFLWLRQPNLAALWVASVVLYVLSYEWLHLAYHLPADRWLARTALVRTLRRHHQLHHAPHLMNRWNFNVTVPLWDWVRGTLYPAPAPGSRPAAQPTGAAGRAP”: “failed”.

Turning to “MGHNAINRLQLVATLAEREVMRYTPAGVPIVNCLLSYSGQAMEAQAARQVEFSIEALGAGKMASVLDRIAPGTVLECVGFLARKHRSSKALVFHISGCNVFVKDLEHHHHHH”, the protein production result is “not failed”. As to “MENLTNDVITILQYLLPGFVSAWVFYSLTSYPKPSQFERVVQALIFTIFIQAIVVVVEFSVRWLCATYEITGVPDKFGLVGSVVTAILLGVAFAGFANNDLLHKCLRRCLITRETSYLRNGLVPFYRTLLLLSYT”, the protein production result is on record as “failed”. With “MGLVVSARSVSPLKKWPSRVRSFSINMGQPKSGQGWKLGACCPANRHNRERTRSCAPAGLTCLRPAPAPWACLGLDLCPSLGLDLGPSLGLALRSGPAEETMDPAGRARGQGATAGGLLLRAAAAAKGLREDLWGAAALPWRSLSRIPKREGLGEEDTAVAGHELRESRDEVSENQAAGRAGSKGLEKVPRAAPPDAAGGKLARRLSPGTPSPSLHRCTPLLPNERSFQNAAKSNNLDLMEKLFEKKVNINVVNNMNRTALHFAVGRNHLSAVDFLLKHKARVDVADKHGLTVIHLAAWSGSLEVMLMLVKAGADQRAKNQDGMSALHFATQSNHVRIVEYLIQDLHLKDLNQPDEKGRKPFLLAAERGHVEMIEKLTFLNLHTSEKDKIQWSTLWTAALTKMKTSRNSIAALTIEGACSPGTGVSTSSVSLLQGGNTALHLAAKHGHSPAVQVLLAQWQDINEMNELNISSLQIATRNGHASLVNFLLSENVDLHQKVEPKESPLHLVVINNHITVVNSLLSAQHDIDILNQKQQTPLHVAADRGNVELVETLLKAGCDLKAVDKQGKTALAVASRSNHSLVVGMLIKAERYYAWREEHHESIRDPSTGFTLTFKQDHSLETRHIRTLLWDLAYHQLKANEWQRLARSWNFTDDQIRAIEEQWSDENLGNIESLLGINQLISFENNEANMFLGKVFYSEHCPLMDILRREGVLAQGSICIRDCWELGMAEAQSMSTHYLYHIQEAVYRNIILTSYSPSVVLAVAHTEYGTMEGACKLSAASPLGNDPVNTGYSLAWQFCVIPLLSI”, the protein production result is “failed”.

Take “MTRMQLHRLRYLLADVFGIVASYLSYNTLRYLTEEQERIYSTLSEYLFNAKSLWVGILYLLFWLSLFALSGYYNKPIAKSRISELLTTVASVLVGSVVVFLLLVVDDIVHDTALYLRLFFMMVATVLPWVYFPRLWVTTFGIKERKKTKGYHRVLLIGSGTIAEETASWLKSVNDMATTRLHFVPPTTREGFEQSLKSFATLVAEAVQESKPHQIILAVDCPDASFISLLLYQLYPFHMPVCVPMRSMLFAGAKVNVQGMKGEPMVDMTATNMSECAKSIKWFADRLFSLLMLILLIPVYAVIAVLVKRSSRGPVFFGQERIGLHGRPFTIYKFRTMYLDAEKDGPSLSFDGDSRVTPIGRILRKYRMDELPQFWNVLRGDMSFVGPRPERAFYIRQLVERAPYYYLLHNVRPGITSWGMVRYGYASTPDEMLERLQYDFLYYENMSLRLDIEVLLYTCQTIFKGLGK”: the protein production entry is “failed”. “MSFRTGERRIWDATATLEALGAADVALWIWEPETDRLRLNGAARALGLGPLAPECSSAAFRALALPQDRAQAEEVLKPREPGSEVVARFRVRGGETCLWRGVWLEEGVRAAGVVAPETKFSASELCDLTGLLDRRSFLARARERLAQEGTHQLVVADLDRLRRLNEALGHERADLVLAALGSRLAAAFPAQSILGRIGEDEFAVLCQPLGYEPSDVLRSALEQPLRVAGFDIHPTLSIGAVSAEGGLDAPDAAELLRRAELAVEAAAAAGRGGAAAYGRAMETDGLSRLALEADLRGAIGRGEITPYFQPIVRLSTGALSGFEALARWIHPRRGMLPPDEFLPLIEEMGLMSELGAHMMHAAAQQLSTWRAAHPAMGNLTVSVNLSTGEIDRPGLVADVAETLRVNRLPRGALKLEVTESDIMRDPERAAVILKTLRDAGAGLALDDFGTGFSSLSYLTRLPFDTLKIDRYFVRTMGNNAGSAKIVRSVVKLGQDLDLEVVAEGVENAEMAHALQSLGCDYGQGFGYAPALSPQEAEVYLNEAYVDGAAPVKARG”: the protein production entry was “failed”. Take “MIIVHHLNNSRSQRILWLLEELGLPYEIKRYQRDPKTNLAPPELKAIHPLGKSPVIEDGPHVVIESGAIVDYLIRRHGDGRLQPDPASATYDEYVQWLHFAEGSAILPLMLNLYVGRLGDAGAPLHPRIHSELANYLGYLNEALGLTPYLLGDELSGADIQMSFIGEFAKMQGMLQPHPNLAAWVQRCQERPAYRQALEQGGEYSFAK”: the protein production result is given as “failed”.
